Data as given in patent US7148193B2, “Compounds that bind to growth hormone receptor” (Antyra, Inc., priority 1997, dated 2006).
Numbering of substitutions follows the chain as printed. Several values for one entry are separate records, joined by “and”; a condition that tells them apart may be missing. Equal values may be shown once. Read-outs that look alike come from different tables or passages of the source. Blank lines part the entries; values can stand above or below the molecule they belong to.

Tests used:
‘hu’ GHBP = molecular target: T1, ‘hu’ GHBP (Rattus norvegicus, UniProt P16310, L61R); experiment: Species specificity of binding by ELISA and BIAcore, 'hu' GHBP; conditions: in words
T1 construct: 1–48 of GHBP; The 3′ oligo used for this reaction encoded the mutation L43R (CTG→AGA); The second PCR reaction amplified the DNA encoding amino acids 38–260; 6xHis; made in house
T1 sequence (P16310 19-278 isoform P16310-2 L61R): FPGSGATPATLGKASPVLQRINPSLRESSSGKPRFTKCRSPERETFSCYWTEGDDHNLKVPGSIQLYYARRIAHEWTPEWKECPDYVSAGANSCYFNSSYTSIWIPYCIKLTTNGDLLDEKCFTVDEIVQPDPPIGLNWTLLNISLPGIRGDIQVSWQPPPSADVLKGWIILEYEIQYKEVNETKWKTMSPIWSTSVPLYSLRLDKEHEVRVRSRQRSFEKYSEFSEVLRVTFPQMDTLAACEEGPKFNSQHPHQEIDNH
Description: Wells were coated with either recombinant rGHBP or ‘hu’ GHBP (100 ng/well). Additions of H5 (SEQ ID NO:8) and H10 (SEQ ID NOS:9, 80, and 81) phage (10^10/well) and detection were made as described. […] Streptavidin chips were coated with H5 (SEQ ID NO:8) to 1100 RU as described and rGHBP or ‘hu’ GHBP (500 μg/ml) injected as 30 μl samples.
Growth hormone receptors from different species bind human GH as well as their own GH, however human GHR only binds human or monkey GH. […] The sequence of rGHBP was altered by PCR to create a “humanized” version (‘hu’ GHBP; FIG. 9A). Partially purified ‘hu’GHBP (FIG. 9B) was tested for binding using ELISA and BIAcore analysis. […] This was confirmed by BIAcore analysis (FIG. 10B).
The biotinylated control peptide (SEQ ID NO:10) was immobilized onto one flow cell of a SA-5 (streptavidin coated) sensor chip to a final density of 700 RU. On a second flow cell, either hGH (1100 RU final density), H5WT peptide (SEQ ID NO:8; 1100 RU final density), or bGH (730 RU final density) was immobilized. GHBP (either rat or humanized) was injected at a concentration of 500 μg/ml with a flow rate of 5 μl/min. Background binding to the control surface was subtracted prior to further analysis.

rGHBP [1] = molecular target: T2, rGHBP (Rattus norvegicus, UniProt P16310); experiment: Time-resolved fluorometric detection (TRFD) of specific bLigand binding to rGHBP and its competition; conditions: for IC50: competitor added 1 hr before bLigand
T2 construct: 1–48 of GHBP; The 3′ oligo used for this reaction encoded the mutation L43R (CTG→AGA); The second PCR reaction amplified the DNA encoding amino acids 38–260; 6xHis; made in house
T2 sequence (P16310 19-278 isoform P16310-2): T1 sequence (P16310 19-278 isoform P16310-2 L61R) with R43L
Description: For this invention, saEu forms a ternary complex with bP and rGHBP (i.e., the rGHBP:bP:saEu complex). As described herein, the TRFD assay is performed using biotinylated GH (bGH) as bLigand. Biotinylated H5-mutant peptides bP#447 (SEQ ID NO:11) and bP#418 (SEQ ID NO:12) are also used as bLigand (see below). The TRFD assay described herein faithfully reports the competition of ligand binding to the active site of rGHR. To perform the TRFD assays, soluble rGHBP is attached to the surface of microtiter wells, then incubated with bP. Unbound bP is than washed away and (sa)Eu is added to complex with receptor bound bP. The rGHBP:bP bound (sa)Eu is then converted into its highly fluorescent state and detected by TRFD.
Wells were coated with rGHBP(100 ng/well) overnight as described. ED50 and IC50 were calculated from analysis of specific bLigand binding to rGHBP. Competitors were added 1 hr prior to addition of bLigand as described.
rGHBP (50–200 μg/ml in 50 mM NaHCO3) was coated onto low-fluorescence MaxiSorp (Nunc) plates (100 μl/well) overnight at 4° C. The plates were blocked with PBS containing 2% non-fat milk and 0.05% BSA for 2 hr at room temperature, followed by three PBS washes. For competitions, serial dilutions of unlabelled growth hormone (0.1 nM-100 nM) or MAb 2C3 (0.67–67 nM) were added to the plates (100 μl/well) and incubated at room temperature for 1–2 hr. Biotinylated peptide or biotinylated GH (10× concentrations) were incubated in blocking buffer for 30 min to decrease non-specific binding. Ten microliters of the 10× concentrated material was added to the plates and incubated at room temperature for 1 hr to overnight.
The plates were then washed five times with Tris-buffered saline (pH 7.5) containing 0.1% Tween-20 (TTBS). To each well, 100 μl of europium-labeled streptavidin in DELFIA assay buffer (100 mM Tris-HCl, pH 7.8; 150 mM NaCl; 0.5% BSA; 0.05% bovine Ig; 0.05% NaN3; 0.01% Tween-20) was added and incubated for 1.5 hr at room temperature. The plates were then washed five times with TTBS and tapped dry. Subsequently, 100 μl of DELFIA enhancement solution (100 mM acetone-potassium hydrogen phthalate, pH 3.2; 15 mM 2-naphtyltrifluoroacetate; […] tri(n-octyl)-phosphine oxide; 0.1% Triton X-100) was added to each well, and the plates were shaken for 10 min at room temperature. Fluorescence of each sample well was measured at 615 nm using a DELFIA 1234 fluorometer (EG&G Wallac). General procedure and references as described by Wallac are available in “Lanthanide labeling for time-resolved fluorometry”: Wallac publication 1244–1126-03.

rGHBP [2] = molecular target: T2, rGHBP; experiment: Phage ELISA binding and competition on rGHBP coated wells; conditions: ELISA signal
Description: For analysis of individual clones, colonies were picked and phage prepared as described above. Microtiter wells were coated and blocked as described above. Wells were coated with either rGHBP or a control IgG MAb. Phage resuspended in MPBS were added to duplicate wells (100 μl/well) and incubated at room temperature for 1 hr. The phage solution was then removed, and the wells were washed three times with PBS at room temperature. Anti-M13 antibody conjugated to horseradish peroxidase (Pharmacia Biotech) was diluted 1:3000 in MPBS and added to each well (100 μl/well). Incubation was for another hour at room temperature, followed by PBS washes as described. Color was developed by addition of ABTS solution (100 μl/well; Boehringer). Color development was stopped by adjusting each well to 0.5% SDS. Plates were analyzed at 405 nm using a SpectraMax 340 plate reader (Molecular Devices) and SoftMax Pro software. Data points were averaged after subtraction of appropriate blanks. A clone was considered “positive” if the A405 of the well was >2-fold over background. […]
These clones were next analyzed for binding to the receptor's active sites (FIG. 2B). Competitions of phage binding were done both with the cognate ligand (i.e., GH) and with a specific target-neutralizing MAb 2C3 (Wang, B. S., et al. Mol. Cellular Endocrinology, vol. 116, p. 223–226, 1996).
(§1) Clones were tested for the presence of E-tag and binding to ‘hu’ GHBP, rGHBP, or BSA-coated wells. Those having specific GHBP binding (i.e., at least 2 fold greater binding to the GHBP than BSA) and with an E-tag positive signal were subjected to DNA sequencing. Three different clones were isolated and tested a second time against GHBP plus and minus GH (1 μM) or BSA (1 μM) coated wells as described. In these tests, huGH was used as competitor with ‘hu’ GHBP coated wells and bovineGH was used as a competitor with rat GHBP coated wells. […] The following open reading frame insertion including the DYKD (SEQ ID NO:79) amino terminal tag and up to the C-terminal E-tag was obtained for these clones; and is shown in Table III: […]

[3] = molecular target: T3, ‘hu’ GHBP (humanized rat GHBP) (Rattus norvegicus, UniProt P16310, L61R); experiment: Phage ELISA binding and competition on 'hu' GHBP coated wells; conditions: ELISA signal
T3 construct: 1–48 of GHBP; The 3′ oligo used for this reaction encoded the mutation L43R (CTG→AGA); The second PCR reaction amplified the DNA encoding amino acids 38–260; 6xHis; made in house
T3 sequence (P16310 19-278 isoform P16310-2 L61R): T1 sequence (P16310 19-278 isoform P16310-2 L61R)
Description: For analysis of individual clones, colonies were picked and phage prepared as described above. Microtiter wells were coated and blocked as described above. Wells were coated with either rGHBP or a control IgG MAb. Phage resuspended in MPBS were added to duplicate wells (100 μl/well) and incubated at room temperature for 1 hr. The phage solution was then removed, and the wells were washed three times with PBS at room temperature. Anti-M13 antibody conjugated to horseradish peroxidase (Pharmacia Biotech) was diluted 1:3000 in MPBS and added to each well (100 μl/well). Incubation was for another hour at room temperature, followed by PBS washes as described. Color was developed by addition of ABTS solution (100 μl/well; Boehringer). Color development was stopped by adjusting each well to 0.5% SDS. Plates were analyzed at 405 nm using a SpectraMax 340 plate reader (Molecular Devices) and SoftMax Pro software. Data points were averaged after subtraction of appropriate blanks. A clone was considered “positive” if the A405 of the well was >2-fold over background.
Humanized GHBP (‘hu’ GHBP) contained the single amino acid change of rat GHBP amino acids L43 to R43, and was capable of binding human GH, as shown in FIG. 9. Direct immobilization of ‘hu’ GHBP was done as described earlier for panning of the secondary H5 library against rat GHBP and used inputs of ‘hu’ GHBP, prepared as described earlier of 100 μl per well of […] protein. Panning was performed with or without H10 peptide (SEQ ID NO:9; 30 μM) for 4 rounds, and 96 clones were picked.
as §1

Molecule: 445: H5-mutant peptide SEQ ID NO:13 (DYKDLCQRLGVGWPGWLAGWCA; #445 peptide) [compound 445]
saturation of receptors (rGHBP [1]; TRFD): could not be saturated | ELISA Competition, rGHBP, +BSA (rGHBP [2]; BSA 1 μM): 0.44 | ELISA Competition, rGHBP, +bGH (rGHBP [2]; bovine GH 1 μM as competitor): 0.16 | ELISA Competition, rGHBP, none (rGHBP [2]; no competitor): 0.45 | ELISA Competition, ‘hu’GHBP, +BSA ([3]; BSA 1 μM): 0.11 | ELISA Competition, ‘hu’GHBP, +hGH ([3]; huGH 1 μM as competitor): 0.12 | ELISA Competition, ‘hu’GHBP, none ([3]; no competitor): 0.14

Molecule: C[S+](C)[O-] [DMSO]
IC50 vs. bGH (rGHBP [1]; TRFD, DMSO effect on bGH binding): >>3% | IC50 vs. bP#418 (SEQ ID NO: 12) (rGHBP [1]; TRFD, DMSO effect on bP#418 binding): >>3% | IC50 vs. bP#447 (SEQ ID NO: 11) (rGHBP [1]; TRFD, DMSO effect on bP#447 binding): >>3% | DMSO IC50 (rGHBP [1]; specific binding of bGH (3 nM), bP#447 (0.3 μM) and bP#418 (0.3 μM), 0 to 20% DMSO): > 15 % (v/v)

B2: GH: non-biotinylated growth hormone, the cognate ligand of GHBP (protein, UniProt P01244 27-216, looked up)
Somatotropin: FPAMPLSSLFANAVLRAQHLHQLAADTYKEFERAYIPEGQRYSIQNAQAAFCFSETIPAPTGKEEAQQRTDMELLRFSLLLIQSWLGPVQFLSRIFTNSLMFGTSDRVYEKLKDLEEGIQALMQELEDGSPRIGQILKQTYDKFDANMRSDDALLKNYGLLSCFKKDLHKAETYLRVMKCRRFAESSCAF
IC50 (rGHBP [1]; TRFD, competition of bGH (2 nM) binding, read-out: IC50 vs. bGH): 5 nM | IC50 (rGHBP [1]; TRFD, competition of bP#418 (300 nM) binding, read-out: IC50 vs. bP#418 (SEQ ID NO: 12)): 2 nM | IC50 (rGHBP [1]; TRFD, competition of bP#447 (300 nM) binding, read-out: IC50 vs. bP#447 (SEQ ID NO: 11)): 0.4 nM

B3: bGH: biotinylated GH used as bLigand in the TRFD assay (protein, UniProt P01244 27-216, looked up)
Somatotropin: B2 Somatotropin
modifications: biotin
notes: biotinylated GH used as bLigand in the TRFD assay
EC50 (rGHBP [1]; TRFD, wells coated with rGHBP 100 ng/well, read-out: ED50 (half-maximum specific binding)): ~20 nM and 20 nM

Next, values leading:

binding to ‘hu’ GHBP (‘hu’ GHBP): bound to human GH
Molecule: human GH: human growth hormone

binding to ‘hu’ GHBP (‘hu’ GHBP): failed to bind
B1: bovine GH: bovine growth hormone (protein)
chain: AFPAMSLSGLFANAVLRAQHLHQLAADTFKEFERTYIPEGQRYSIQNTQVAFCFSETIPAPTGKNEAQQKSDLELLRISLLLIQSWLGPLQFLSRVFTNSLVFGTSDRVYEKLKDLEEGILALMRELEDGTPRAGQILKQTYDKFDTNMRSDDALLKNYGLLSCFRKDLHKTETYLRVMKCRRFGEASCAF

binding to ‘hu’ GHBP (‘hu’ GHBP): failed to bind
B4: rat GH: rat growth hormone (protein, UniProt P01244 27-216, looked up)
Somatotropin: B2 Somatotropin
